# According to IntAct's records for PubMed 20010840:
# B1: Signaling lymphocytic activation molecule (Homo sapiens), Q13291 (parent)
# chain: MDPKGLLSLTFVLFLSLAFGASYGTGGRMMNCPKILRQLGSKVLLPLTYERINKSMNKSIHIVVTMAKSLENSVENKIVSLDPSEAGPPRYLGDRYKFYLENLTLGIRESRKEDEGWYLMTLEKNVSVQRFCLQLRLYEQVSTPEIKVLNKTQENGTCTLILGCTVEKGDHVAYSWSEKAGTHPLNPANSSHLLSLTLGPQHADNIYICTVSNPISNNSQTFSPWPGCRTDPSETKPWAVYAGLLGGVIMILIMVVILQLRRRGKTNHYQTTVEKKSLTIYAQVQKPGPLQKKLDSFPAQDPCTTIYVAATEPVPESVQETNSITVYASVTLPES
# Variants of: B1
# Details: with hema_mease H
row,Variant,effect of a mutation on the interaction
1,R90A,decreasing interaction
2,Y91A,decreasing interaction
3,P88G;P89G,decreasing interaction
